In US8030043B2, “β-galactoside-α2,3-sialyltransferase, a gene encoding thereof, and a method for producing thereof” (Japan Tobacco Inc., priority 2005, dated 2011):

B1: ISH467-N2C0 third clone: JT-ISH-467 sialyltransferase lacking signal peptide region, nucleotides 73 to 1230 of SEQ ID NO: 1, no mutation (protein, listed as Photobacterium phosphoreum)
chain: MFVFCKKIFFLIFISLMILGGCNSDSKHNNSDGNITKNKTIEVYVDRATLPTIQQMTQIINENSNNKKLISWSRYPINDETLLESINGSFFKNRPELIKSLDSMILTNEIKKVIINGNTLWAVDVVNIIKSIEALGKKTEIELNFYDDGSAEYVRLYDFSRLPESEQEYKISLSKDNIQSSINGTQPFDNSIENIYGFSQLYPTTYHMLRADIFETNLPLTSLKRVISNNIKQMKWDYFTTFNSQQKNKFYNFTGFNPEKIKEQYKASPHENFIFIGTNSGTATAEQQIDILTEAKKPDSPIITNSIQGLDLFFKGHPSATYNQQIIDAHNMIEIYNKIPFEALIMTDALPDAVGGMGSSVFFSLPNTVENKFIFYKSDTDIENNALIQVMIELNIVNRNDVKLISDLQ
modifications: CDS (1)..(1230) /gene=“467-23ST” /product=“Beta-galactoside- alpha 2,3-sialyltransferase”
B2: FAJ-N1C0 first clone: JT-FAJ-16 sialyltransferase lacking signal peptide region, nucleotides 67 to 1209 of SEQ ID NO: 30 (protein, listed as Vibrio sp.)
chain: MKNIITKRMLIILSSLFTIIGCNNDNSTTTNNNAIEIYVDRATLPTIQQMTKIVSQKTSNKKLISWSRYPITDKSLLKKINAEFFKEQFELTESLKNIILSENIDNLIIHGNTLWSIDVVDIIKEVNLLGKNIPIELHFYDDGSAEYVRIYEFSKLPESEQKYKTSLSKNNIKFSIDGTDSFKNTIENIYGFSQLYPTTYHMLRADIFDTTLKINPLRELLSNNIKQMKWDYFKDFNYKQKDIFYSLTNFNPKEIQEDFNKNSNKNFIFIGSNSATATAEEQINIISEAKKENSSIITNSISDYDLFFKGHPSATFNEQIINAHDMIEINNKIPFEALIMTGILPDAVGGMGSSVFFSIPKEVKNKFVFYKSGTDIENNSLIQVMLKLNLINRDNIKLISDI
modifications: CDS (1)..(1209) /gene=“FAJ16-23ST” /product=“Beta-galactoside- alpha 2,3-sialyltransferase”
B3: ISH224-N1C0 first clone: JT-ISH-224 sialyltransferase lacking signal peptide region, nucleotides 73 to 1230 of SEQ ID NO: 28 (protein, listed as Photobacterium sp.)
chain: MLVFCKKMFFSVFISLMILGGCNSDSNHNNSDGNITKNKTIEVYVDRATLPTIQQMTQIINENSNNKKLISWSRYPINDEELLESINGSFFKNNSELIKSLDSMILTNDIKKVIINGNTLWAADVVNIIKSIEAFGKKTEIELNFYDDGSAEYVRLYDFSKLPESEQEYKISLSKDNILSSINGTQPFENVVENIYGFSQLYPTTYHMLRADIFETNLPLRSLKGVLSNNIKQMKWDYFKTFNSQQKDKFYNFTGFNPDEIMEQYKASPNKNFIFVGTNSGTATAEQQIDILTEAKNPNSPIITKSIQGFDLFFKGHPSATYNKQIIDAHNMIEIYNKIPFEALIMTDALPDAVGGMGSSVFFSLPNTVENKFIFYKSDTDIENNALIQVMIELNIVNRNDVKLISDLQ
modifications: CDS (1)..(1230) /gene=“224-23ST” /product=“Beta-galactoside-alpha-2,3-sialyltransferase”

Tests used:
Type in all cases: biochemical
[1] = Sialyltransferase activity in E. coli homogenate (crude enzyme solution), transfer of 14C-NeuAc from CMP-NeuAc to lactose; settings: lactose acceptor; for Radioactivity (cpm) Average: average of duplicate; for Sialyltransferase activity in crude enzyme solution (in words): CMP-14C-NeuAc donor
Procedure: Sialyltransferase activity was measured as described in J. Biochem., 120, pp. 104-110 (1996) (which is hereby incorporated by reference in its entirety). More specifically, the enzymatic reaction was accomplished by using CMP-NeuAc (70 nmol, containing 25000 cpm CMP-NeuAc in which NeuAc was labeled with ^14C, 356 cpm/nmol; NeuAc represents N-acetylneuraminic acid) as a glycosyl donor substrate, lactose (1.25 μmol) as a glycosyl acceptor substrate, NaCl added to give a concentration of 0.5 M, and the enzyme-containing reaction solution (30 μl) prepared as described above. The enzymatic reaction was carried out at 25° C. for 10 to 30 minutes. After completion of the reaction, 1.97 ml of 5 mM phosphate buffer (pH 6.8) was added to the reaction solution, which was then applied to a Dowex 1×8 (PO4^3− form, 0.2×2 cm, BIO-RAD) column. The radioactivity was measured for the reaction product, i.e., sialyllactose contained in the eluate (0 to 2 ml) from this column to calculate the enzyme activity.
An induction experiment of protein expression was performed on the two 467-N0C0 clones and the three 467-N2C0 clones obtained in (4) above. A single colony of E. coli TB1 having the expression vector pTrc99A carrying each clone was inoculated into LB medium (5 ml) containing an antibiotic, ampicillin (final concentration 100 μg/mL), and pre-cultured at 30° C. to about A600=0.5, followed by addition of IPTG (isopropyl-β-D(−)-thiogalactopyranoside, Wako Pure Chemical Industries, Ltd. Japan) at a final concentration of 1 mM. After culturing with shaking at 30° C. for an additional 4 hours, the cells in 2 ml culture solution were collected by centrifugation. These cells were suspended in 200 μl of 20 mM BisTris buffer (pH 7.0) containing 0.336% Triton X-100 and 0.5 M sodium chloride, and ultrasonically homogenized under ice cooling. The resulting homogenate was defined as a crude enzyme solution and provided for activity measurement. The reaction was carried out in duplicate, and the reaction composition was the same as shown in Example 1, except that the reaction time was set to 15 hours.
In the same manner as shown in Example 5(5), an induction experiment of protein expression was performed on 2 clones, i.e., the first clone of ISH224-N0C0 and the first clone of ISH224-N1C0 to measure their enzyme activity.
In the same manner as shown in Example 5(5), an induction experiment of protein expression was performed on 3 clones, i.e., the first clone of FAJ-N0C0 as well as the first and second clones of FAJ-N1C0 to measure their enzyme activity.

[2] = test system: asialofetuin; assay: Sialic acid transfer to glycoprotein (asialofetuin), gel filtration and scintillation counting; settings: asialofetuin acceptor; CMP-14C-NeuAc 22.8 nmol (about 19,000 cpm); enzyme 10 mU; 25° C., 2 hours
Excerpt: Cell homogenates prepared from E. coli cells introduced with the third clone of ISH467-N2C0, the first clone of ISH224-N1C0 and the first clone of FAJ-N1C0 were each purified by ion exchange chromatography and hydroxyapatite chromatography to give an electrophoretically single band. The thus purified β-galactoside-α2,3-sialyltransferases were used in the following experiment in order to examine the presence or absence of sialyltransferase activity toward glycoproteins.
As a glycosyl acceptor substrate, asialofetuin was used. Asialofetuin (2 mg) was dissolved in 1 ml of 20 mM Bis-tris buffer (pH 6.0) and used as a glycosyl acceptor substrate solution. As a glycosyl donor substrate, CMP-^14C-NeuAc-containing CMP-NeuAc was used. The glycosyl acceptor substrate solution (40 μl), the glycosyl donor substrate (5 μl, 22.8 nmol (about 19,000 cpm)) and any of the enzyme solutions (5 μl, 10 mU each) were mixed and incubated at 25° C. for 2 hours to cause sialic acid transfer reaction. After completion of the reaction, the reaction solution was gel-filtered by being applied to a Sephadex G-50 Superfine (0.8×18.0 cm) equilibrated with 0.1 M sodium chloride. A glycoprotein-containing eluate fraction (2-4 ml fraction) from gel filtration was collected and measured for its radioactivity using a liquid scintillation counter to quantify sialic acid transferred to the glycosyl acceptor substrate.

[3] = Optimum pH for enzyme activity; settings: 25° C.; acetate, cacodylate, phosphate, TAPS, CHES, CAPS buffers pH 4.0-11.0
Procedure: (§1) Purified enzymes were prepared to examine the optimum pH and temperature for β-galactoside-α2,3-sialyltransferase produced by the strain JT-ISH-467 as well as recombinant β-galactoside-α2,3-sialyltransferases produced by the third clone of ISH467-N2C0, the first clone of ISH224-N1C0 and the first clone of FAJ-N1C0.
Acetate buffer (pH 4.0, pH 4.5 and pH 5.0), cacodylate buffer (pH 5.0, pH 5.5, pH 6.0, pH 6.5 and pH 7.0), phosphate buffer (pH 7.0, pH 7.5 and pH 8.0), TAPS buffer (pH 8.0, pH 8.5 and pH 9.0), CHES buffer (pH 9.0, pH 9.5 and pH 10.0) and CAPS buffer (pH 10.0, pH 10.5 and pH 11.0) were prepared and used for enzyme activity measurement at 25° C. at various pH values.
As a result, as shown in FIGS. 3-1 and 3-2, the enzyme activity was maximum at pH 5.0 for β-galactoside-α2,3-sialyltransferase produced by the strain JT-ISH-467, at pH 5.5 for the third clone of ISH467-N2C0, at pH 5.0 for the first clone of ISH224-N1C0, and at pH 5.5 for the first clone of FAJ-N1C0. […] It should be noted that enzyme activity at each pH was expressed as relative activity, assuming that the enzyme activity at pH where it reached a maximum was set to 100.

[4] = Optimum temperature for enzyme activity; settings: 5° C. to 45° C. at 5° C. intervals, at the optimum pH of each enzyme
Procedure: as §1
The enzyme activity was measured at an interval of 5° C. starting from 5° C. up to 45° C. and at pH 5.0 for β-galactoside-α2,3-sialyltransferase produced by the strain JT-ISH-467, in cacodylate buffer (pH 5.5) for the third clone of ISH467-N2C0, in cacodylate buffer (pH 5.0) for the first clone of ISH224-N1C0, and in cacodylate buffer (pH 5.5) for the first clone of FAJ-N1C0.
As a result, as shown, in FIGS. 4-1 and 4-2, the enzyme activity was maximum at 25° C. for β-galactoside-α2,3-sialyltransferase produced by the strain JT-ISH-467, at 25° C. for the third clone of ISH467-N2C0, at 30° C. for the first clone of ISH224-N1C0, and at 20° C. for the first clone of FAJ-N1C0. […] It should be noted that enzyme activity at each temperature was expressed as relative activity, assuming at that the enzyme activity at a temperature where it reached a maximum was set to 100.

[5] = JT-ISH-467 gene clones, 25° C., reaction time 15 hours
[6] = JT-FAJ-16 gene clones, as Example 5(5)
[7] = JT-ISH-224 gene clones, as Example 5(5)

Molecule | Radioactivity (cpm) Round 1 [1, 5] [cpm] | Radioactivity (cpm) Round 2 [1, 5] [cpm] | Radioactivity (cpm) Average [1, 5] [cpm] | Sialyltransferase activity in crude enzyme solution (in words) [1] | Radioactivity (cpm) [2] [cpm] | pH at which the enzyme activity was maximum (optimum pH) [3] | Temperature at which the enzyme activity was maximum (optimum temperature) [4] [°C] | Radioactivity (cpm) Round 1 [1, 6] [cpm] | Radioactivity (cpm) Round 2 [1, 6] [cpm] | Radioactivity (cpm) Average [1, 6] [cpm] | Radioactivity (cpm) Round 1 [1, 7] [cpm] | Radioactivity (cpm) Round 2 [1, 7] [cpm] | Radioactivity (cpm) Average [1, 7] [cpm]
B1 | 8547 | 8481 | 8514 | sialyltransferase activity was also observed | 1729 | 5.5 | 25 | – | – | – | – | – | –
B2 | – | – | – | sialyltransferase activity was observed | 2865 | 5.5 | 20 | 5664 | 6724 | 6194 | – | – | –
B3 | – | – | – | sialyltransferase activity was observed | 3301 | 5.0 | 30 | – | – | – | 9330 | 9415 | 9672.5
